Laboratory results reported in the supplement of paper PMC9112550, “Optimization of the antimicrobial peptide Bac7 by deep mutational scanning” (BMC Biology, 2022).

Tested on: Escherichia coli TOP10
Experiment: shrunken log2 fold change of peptide-encoding DNA abundance (4.5 h post-induction vs induction); higher = less antimicrobial activity (less host growth inhibition)
Conditions: time post-induction: 4.5 h; library: site-saturation at positions 5, 18, 19, 20
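Further: peptides expressed intracellularly from a pBAD plasmid library in pooled LB shake-flask culture, induced with 0.3% L-arabinose, DNA abundance read by NGS, three biological replicates, DESeq2 with apeglm shrinkage.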

| Sequence | shrunken log2 fold change |
| --- | --- |
| RRIRGRPPRLPRPRPRPVHPPRP | 2.04 |
| RRIRQRPPRLPRPRPRPNNEPRP | -0.885 |
| RRIRFRPPRLPRPRPRPMFEPRP | -0.0233 |
| RRIRLRPPRLPRPRPRPINQPRP | -0.321 |
| RRIRWRPPRLPRPRPRPCWIPRP | -0.072 |
| RRIRIRPPRLPRPRPRPAVCPRP | -0.214 |
| RRIRLRPPRLPRPRPRPSEWPRP | -0.0637 |
| RRIRCRPPRLPRPRPRPCQKPRP | -0.103 |
| RRIRDRPPRLPRPRPRPLGKPRP | 0.188 |
| RRIRYRPPRLPRPRPRPQAYPRP | -0.00884 |
| RRIRDRPPRLPRPRPRPLMDPRP | 0.172 |
| RRIRQRPPRLPRPRPRPEKHPRP | -0.214 |
| RRIRCRPPRLPRPRPRPENMPRP | -0.57 |
| RRIRFRPPRLPRPRPRPSMHPRP | -0.291 |
| RRIRQRPPRLPRPRPRPTISPRP | -0.379 |
| RRIRKRPPRLPRPRPRPDIKPRP | 0.137 |
| RRIRQRPPRLPRPRPRPHQTPRP | -0.0333 |
| RRIRYRPPRLPRPRPRPESCPRP | 0.0195 |
| RRIRARPPRLPRPRPRPPCDPRP | 0.506 |
| RRIRIRPPRLPRPRPRPAKKPRP | 0.0493 |
| RRIRNRPPRLPRPRPRPRYDPRP | -0.494 |
| RRIRRRPPRLPRPRPRPHKKPRP | 0.228 |
| RRIRLRPPRLPRPRPRPFASPRP | -0.062 |
| RRIRQRPPRLPRPRPRPIEKPRP | 0.0125 |
| RRIRLRPPRLPRPRPRPMGPPRP | 0.015 |

| Sequence | shrunken log2 fold change |
| --- | --- |
| RRIRDRPPRLPRPRPRPKSMPRP | -0.0219 |
| RRIRQRPPRLPRPRPRPYNNPRP | -1.04 |
| RRIRPRPPRLPRPRPRPPNSPRP | -0.0717 |
| RRIRYRPPRLPRPRPRPQIPPRP | -0.17 |
| RRIRPRPPRLPRPRPRPKHFPRP | 0.328 |
| RRIRARPPRLPRPRPRPSGTPRP | -0.0328 |
| RRIRWRPPRLPRPRPRPCYIPRP | -0.46 |
| RRIRHRPPRLPRPRPRPPTMPRP | -0.354 |
| RRIRMRPPRLPRPRPRPHNDPRP | 0.00915 |
| RRIRRRPPRLPRPRPRPEPDPRP | 0.879 |
| RRIRLRPPRLPRPRPRPFDKPRP | -0.151 |
| RRIRVRPPRLPRPRPRPYWKPRP | -0.074 |
| RRIRNRPPRLPRPRPRPEIWPRP | 0.0992 |
| RRIRPRPPRLPRPRPRPTWQPRP | 0.543 |
| RRIRLRPPRLPRPRPRPFALPRP | 0.187 |
| RRIRYRPPRLPRPRPRPGPGPRP | 0.304 |
| RRIRWRPPRLPRPRPRPEYWPRP | 0.388 |
| RRIRGRPPRLPRPRPRPALSPRP | 1.31 |
| RRIRNRPPRLPRPRPRPTYYPRP | -0.325 |
| RRIRHRPPRLPRPRPRPEVLPRP | -0.0421 |
| RRIRARPPRLPRPRPRPAIPPRP | -0.101 |
| RRIRQRPPRLPRPRPRPVKFPRP | -0.0717 |
| RRIRWRPPRLPRPRPRPAPIPRP | 0.319 |
| RRIRVRPPRLPRPRPRPKLCPRP | -0.0766 |
| RRIRQRPPRLPRPRPRPCVPPRP | -0.0509 |

| Sequence | shrunken log2 fold change |
| --- | --- |
| RRIRSRPPRLPRPRPRPCFHPRP | -0.749 |
| RRIRIRPPRLPRPRPRPAWYPRP | 0.0724 |
| RRIRLRPPRLPRPRPRPIEVPRP | 0.434 |
| RRIRCRPPRLPRPRPRPFVQPRP | -0.86 |
| RRIRKRPPRLPRPRPRPWWLPRP | 0.252 |
| RRIRSRPPRLPRPRPRPDWEPRP | -0.0106 |
| RRIRMRPPRLPRPRPRPKEQPRP | 1.26 |
| RRIRGRPPRLPRPRPRPQEQPRP | 0.458 |
| RRIRKRPPRLPRPRPRPVVAPRP | 0.876 |
| RRIRRRPPRLPRPRPRPKYDPRP | -0.466 |
| RRIRDRPPRLPRPRPRPGNHPRP | 0.0062 |
| RRIRNRPPRLPRPRPRPYMWPRP | -0.328 |
| RRIRMRPPRLPRPRPRPSIMPRP | 0.23 |
| RRIRIRPPRLPRPRPRPMMRPRP | 0.116 |
| RRIRYRPPRLPRPRPRPWCAPRP | -0.255 |
| RRIRGRPPRLPRPRPRPRMMPRP | 0.882 |
| RRIRERPPRLPRPRPRPSQFPRP | -0.474 |
| RRIRTRPPRLPRPRPRPQLCPRP | -0.0792 |
| RRIRPRPPRLPRPRPRPVAAPRP | 0.406 |
| RRIRMRPPRLPRPRPRPGGMPRP | 0.789 |
| RRIRMRPPRLPRPRPRPMNEPRP | -0.101 |
| RRIRDRPPRLPRPRPRPTAFPRP | 0.231 |
| RRIRIRPPRLPRPRPRPHNFPRP | -0.0684 |
| RRIRYRPPRLPRPRPRPIPLPRP | -0.418 |
| RRIRIRPPRLPRPRPRPQWNPRP | -0.316 |

| Sequence | shrunken log2 fold change |
| --- | --- |
| RRIRARPPRLPRPRPRPLLPPRP | 0.419 |
| RRIRGRPPRLPRPRPRPMQQPRP | 2.08 |
| RRIRTRPPRLPRPRPRPGCIPRP | -0.22 |
| RRIRIRPPRLPRPRPRPMLHPRP | -0.749 |
| RRIRQRPPRLPRPRPRPQIKPRP | -0.498 |
| RRIRSRPPRLPRPRPRPWSPPRP | -0.1 |
| RRIRNRPPRLPRPRPRPHLVPRP | -0.0893 |
| RRIRHRPPRLPRPRPRPLEIPRP | -0.0535 |
| RRIRFRPPRLPRPRPRPYVHPRP | -1.75 |
| RRIRIRPPRLPRPRPRPNWSPRP | 0.0776 |
| RRIRRRPPRLPRPRPRPGNEPRP | -0.301 |
| RRIRMRPPRLPRPRPRPYWCPRP | -0.0737 |
| RRIRDRPPRLPRPRPRPFNDPRP | -0.158 |
| RRIRRRPPRLPRPRPRPTAHPRP | 1.51 |
| RRIRIRPPRLPRPRPRPACTPRP | 0.242 |
| RRIRLRPPRLPRPRPRPGFVPRP | 0.487 |
| RRIRIRPPRLPRPRPRPRCKPRP | -0.35 |
| RRIRERPPRLPRPRPRPNFMPRP | -0.178 |
| RRIRSRPPRLPRPRPRPKAGPRP | 0.19 |
| RRIRARPPRLPRPRPRPTCYPRP | 0.128 |
| RRIRQRPPRLPRPRPRPRQHPRP | -0.141 |
| RRIRGRPPRLPRPRPRPKNMPRP | 0.176 |
| RRIRSRPPRLPRPRPRPGVDPRP | 0.334 |
| RRIRARPPRLPRPRPRPNPLPRP | 0.32 |
| RRIRLRPPRLPRPRPRPRAWPRP | 0.41 |

| Sequence | shrunken log2 fold change |
| --- | --- |
| RRIRHRPPRLPRPRPRPFTTPRP | -0.0869 |
| RRIRCRPPRLPRPRPRPKFYPRP | -0.309 |
| RRIRTRPPRLPRPRPRPHMMPRP | -0.586 |
| RRIRSRPPRLPRPRPRPGQLPRP | -0.17 |
| RRIRKRPPRLPRPRPRPTGEPRP | 0.954 |
| RRIRVRPPRLPRPRPRPTYAPRP | 0.141 |
| RRIRQRPPRLPRPRPRPSDNPRP | -0.394 |
| RRIRDRPPRLPRPRPRPWCNPRP | -0.378 |
| RRIRERPPRLPRPRPRPMTFPRP | -0.081 |
| RRIRLRPPRLPRPRPRPPRFPRP | 0.209 |
| RRIRDRPPRLPRPRPRPSHYPRP | -1.14 |
| RRIRDRPPRLPRPRPRPQLVPRP | 0.0777 |
| RRIRTRPPRLPRPRPRPWNGPRP | -0.199 |
| RRIRPRPPRLPRPRPRPSWRPRP | -0.0524 |
| RRIRMRPPRLPRPRPRPNSWPRP | 0.122 |
| RRIRPRPPRLPRPRPRPQLKPRP | 0.202 |
| RRIRARPPRLPRPRPRPILTPRP | 0.0217 |
| RRIRFRPPRLPRPRPRPCRSPRP | 0.974 |
| RRIRERPPRLPRPRPRPEEYPRP | -0.4 |
| RRIRYRPPRLPRPRPRPVCPPRP | 0.101 |
| RRIRNRPPRLPRPRPRPDFYPRP | -0.24 |
| RRIRGRPPRLPRPRPRPFEKPRP | 0.22 |
| RRIRWRPPRLPRPRPRPNVNPRP | -0.171 |
| RRIRKRPPRLPRPRPRPVMRPRP | 0.74 |
| RRIRMRPPRLPRPRPRPICWPRP | 0.0409 |

| Sequence | shrunken log2 fold change |
| --- | --- |
| RRIRWRPPRLPRPRPRPQCWPRP | 0.0793 |
| RRIRGRPPRLPRPRPRPRSKPRP | 0.781 |
| RRIRQRPPRLPRPRPRPDPCPRP | -0.243 |
| RRIRDRPPRLPRPRPRPWKIPRP | 0.0112 |
| RRIRRRPPRLPRPRPRPSIHPRP | -0.337 |
| RRIRHRPPRLPRPRPRPISWPRP | -0.245 |
| RRIRWRPPRLPRPRPRPNCQPRP | -0.14 |
| RRIRDRPPRLPRPRPRPCSHPRP | -0.0198 |
| RRIRSRPPRLPRPRPRPTPWPRP | 0.349 |
| RRIRGRPPRLPRPRPRPFGAPRP | 0.793 |
| RRIRKRPPRLPRPRPRPMSFPRP | 0.106 |
| RRIRVRPPRLPRPRPRPPVPPRP | 0.35 |
| RRIRIRPPRLPRPRPRPFIDPRP | -0.205 |
| RRIRWRPPRLPRPRPRPWIHPRP | -0.192 |
| RRIRDRPPRLPRPRPRPLMSPRP | 0.101 |
| RRIRARPPRLPRPRPRPRNQPRP | -0.012 |
| RRIRNRPPRLPRPRPRPPQTPRP | 0.424 |
| RRIRCRPPRLPRPRPRPPFTPRP | -0.15 |
| RRIRCRPPRLPRPRPRPCTAPRP | -0.361 |
| RRIRCRPPRLPRPRPRPFQHPRP | -0.221 |
| RRIRRRPPRLPRPRPRPNLNPRP | -0.0389 |
| RRIRRRPPRLPRPRPRPQPYPRP | -0.142 |
| RRIRNRPPRLPRPRPRPPESPRP | -0.000194 |
| RRIRVRPPRLPRPRPRPWEQPRP | -0.355 |
| RRIRQRPPRLPRPRPRPNYHPRP | -0.676 |
